Data reported in US20070014736A1, “Methods of delivering corticotroph-derived glycoprotein hormone” (priority 2005, published 2007).

Columns and labels:
[1] = system: LPS-induced mild endotoxemia mouse model; assay: LPS-induced mild endotoxemia mouse model, serum cytokines; type: in vivo, mice
Procedure: An in vivo experiment was designed to examine the effect of CGH in a mouse model of LPS-induced mild endotoxemia. This model mimics acute endotoxemia/sepsis by challenging mice with a low, non-lethal dose of bacterial endotoxin (lipopolysaccharide, LPS). Serum is collected at various timepoints (1-8 hours) after intraperitoneal LPS injection and analyzed for altered expression of a wide variety of pro- and anti-inflammatory cytokines and acute phase proteins that mediate the inflammatory response. The model provides a means to assess the potential anti-inflammatory effects of therapeutic candidates during a robust inflammatory response. To initially assess the model, we measured proinflammatory cytokines in a pilot experiment to collect reference data for the model.
C57B1/6 mice (Charles River Laboratories; 5 mice/group) were treated i.p. with PBS, 0.2 mg/kg CGH in PBS, or 2 mg/kg CGH in PBS 1 hour prior to LPS challenge. The mice were then challenged with 25 ug of LPS i.p. and bled at 1 hour and 4 hours after LPS injection. Serum was analyzed for TNF[…] (1 hour) and IL-6 (4 hours) levels by ELISA.
To determine if CGH would potentiate the effect of a sub-maximal dose of glucocorticoid, groups of 10 C57B1/6 mice each were treated i.p. with PBS, 0.15 or 1.5 mg/kg Dex, 2 mg/kg CGH, or a combination of CGH and low or high doses of Dex, 1 hour prior to injection of 25 ug LPS i.p. As shown in TABLE 3 (Expt #2), either 2 mg/kg CGH or 1.5 mg/kg Dex treatment alone (1 hour prior to LPS) caused a significant drop in serum TNFα levels at 1 hour, as observed in previous experiments. The effects of CGH administered in conjunction with Dex on inhibition of TNFα production were greater than either dose of Dex alone.

[2] = system: obese male ob/ob mice; assay: Chronic 28-day treatment of ob/ob mice; type: in vivo
Procedure: Summary: CGH was administered daily for 28 days to obese male ob/ob mice. Mice were also treated with vehicle saline and thyroxine. Data was obtained for food intake, blood glucose, serum insulin, serum lipids, and serum thyroid hormone levels. At sacrifice, animals were examined for changes in liver pathology, and gross histology. […] Evaluation of liver histology sections was performed to examine the effect of CGH-mediated lipolysis on liver steatosis.
11-week old male ob/ob mice were individually caged and given a standard lab chow (4% fat) with free access to food and water. Animals were assigned to a treatment group (n=7−8, average weight 54.3±0.3 g/group), kept on a 12 hour dark cycle (6 PM to 6 AM), and injected each day between 7 and 9 AM. Chow consumed by each animal was weighed twice weekly. All animals received treatments IP in an injection volume of 0.1 ml. CGH was administered at 250 μg/kg, dissolved in sterile saline. Thyroxine (T4) was administered at 1.5 μg/mouse for 4 days, reduced to 1 μg/mouse for 10 days, and returned to 1.5 μg/mouse for the next 14 days. The vehicle controls received sterile saline. TSH was obtained from Genzyme Pharmaceuticals (Thyrogen®, Catalog number 36778; Genzyme Corporation, Cambridge, Mass.), and T4 obtained from Calbiochem, Inc. (EMD Biosciences, catalog number 61205, San Diego, Calif.) All blood draws were performed by retro-orbital puncture under isoflurane anesthesia.
After 25 days of treatment as described above, blood was sampled from all treated animals, serum separated, and analyzed for total T4 by a commercially available kit (Biocheck, Burlingame, Calif.). After 25 days of treatment, the vehicle T4 levels were 5.14±0.08 μg/dl. The CGH-treated group had T4 levels of 7.25±1.2 μg/dl, and the thyroxine-treated group had T4 levels of 9.04±0.47 μg/dl.
Subject animals were fasted for 4 hours at the beginning of the light cycle, and serum was obtained at treatment day 25 under isoflurane anesthesia. Serum Glucose levels were determined with the Cholestech LDX blood analyzer (Cholestech Corporation, Hayward Calif.), and serum insulin levels by ELISA. Serum glucose levels for vehicle and thyroxine treated groups were 306±22 and 295±23 mg/dl, respectively. […] Serum insulin levels for the vehicle and thyroxine treated groups were 33.5±1.8 and 25.9±1.7 ng/ml, respectively.
Subject animals were fasted for 4 hours at the beginning of the light cycle, and serum was obtained at treatment day 25 under isoflurane anesthesia. Triglyceride and total cholesterol levels were determined with the Cholestech LDX blood analyzer. Serum triglyceride levels for the vehicle controls were 143.7±23 mg/dl. […] Total cholesterol levels in the vehicle-treated and thyroxine-treated groups were 198±13 and 194±15 mg/dl, respectively.
Liver sections were dissected from all treatment groups described above and mounted in paraffin following fixation with NBS-formalin. Sections were mounted and stained with hematotoxylin and eosin (H&E) for visualization of hepatic structural changes. The extent of liver steatosis was evaluated on a four-point scale, from 0 to 3, with zero displaying no signs of liver steatosis, and a […], represented pronounced macrovesicular and microvesicular steatosis. […] Average scores given to the groups were vehicle (4), thyroxine (3), and CGH (1.5). […] The CGH treated sections appear to have regained hallmarks of normal hepatocyte architecture in only 28 days of treatment, with areas containing hepatocytes without lipid-laden inclusions in the cytoplasm of the cell.

[3] = Expt 1, 0.2 mg/kg CGH i.p. 1 hr prior to LPS
[4] = Expt 1, 2 mg/kg CGH i.p. 1 hr prior to LPS

B1: CGH: heterodimeric protein hormone comprised of alpha subunit GPHA2 and beta subunit GPHB5, recombinantly produced in CHO cells (protein)
chain 1: QEAVIPGCHLHPFNVTVRSDRQGTCQGSHVAQACVGHCESSAFPSRYSVLVASGYRHNITSVSQCCTISGLKKVKVQLQCVGSRREELEIFTARACQCDMCRLSRY
chain 2: ASSGNLRTFVGCAVREFTFLAKKPGCRGLRITTDACWGRCETWEKPILEPPYIEAHHRVCTYNETKQVTVKLPNCAPGVDPFYTYPVAIRCDCGACSTATTECETI
[1]; 2 mg/kg CGH, 1 hour time point, Expt 1
  reduction of TNFα induction: about 60%
[1]; 2 mg/kg CGH, 4 hour time point, Expt 1
  increase of serum IL-6 levels: about 70%
[1]; [3]
  IL-6, 4 hours: 49.7 ± 3.1 ng/mL
  TNFα, 1 hour: 3916 ± 1057 pg/mL
[1]; [4]
  IL-6, 4 hours: 71.1 ± 12.9 ng/mL
  TNFα, 1 hour: 2290 ± 530 pg/mL
[1]; Expt 2, 2 mg/kg CGH
  IL-6, 4 hours: 57.1 ± 16.2 ng/mL
  TNFα, 1 hour: 2274 ± 524 pg/mL
[2]; H&E liver sections, 28 days, n=4
  liver steatosis average score: 1.5
[2]; after 25 days of treatment
  serum total T4 levels: 7.25 ± 1.2 µg/dL
[2]; day 25, fasted 4 hours
  Serum glucose levels: 251 ± 10 mg/dL
  Serum insulin levels: 14.2 ± 3.6 ng/mL
  Serum triglyceride levels: 100 ± 14.7 mg/dL
  Total cholesterol levels: 104 ± 8.8 mg/dL
[2]; ob/ob mice, CGH 250 μg/kg IP daily, T4 1-1.5 μg/mouse
  Food intake: 6.3±0.09 grams/day of chow
